Laboratory results as given in patent CN108290942A.
Blank lines part the entries; values can stand above or below the binder they belong to.

Biological target: T1, 细胞实际分泌的信号素3A (UniProt Q14563)
T1 sequence (looked up): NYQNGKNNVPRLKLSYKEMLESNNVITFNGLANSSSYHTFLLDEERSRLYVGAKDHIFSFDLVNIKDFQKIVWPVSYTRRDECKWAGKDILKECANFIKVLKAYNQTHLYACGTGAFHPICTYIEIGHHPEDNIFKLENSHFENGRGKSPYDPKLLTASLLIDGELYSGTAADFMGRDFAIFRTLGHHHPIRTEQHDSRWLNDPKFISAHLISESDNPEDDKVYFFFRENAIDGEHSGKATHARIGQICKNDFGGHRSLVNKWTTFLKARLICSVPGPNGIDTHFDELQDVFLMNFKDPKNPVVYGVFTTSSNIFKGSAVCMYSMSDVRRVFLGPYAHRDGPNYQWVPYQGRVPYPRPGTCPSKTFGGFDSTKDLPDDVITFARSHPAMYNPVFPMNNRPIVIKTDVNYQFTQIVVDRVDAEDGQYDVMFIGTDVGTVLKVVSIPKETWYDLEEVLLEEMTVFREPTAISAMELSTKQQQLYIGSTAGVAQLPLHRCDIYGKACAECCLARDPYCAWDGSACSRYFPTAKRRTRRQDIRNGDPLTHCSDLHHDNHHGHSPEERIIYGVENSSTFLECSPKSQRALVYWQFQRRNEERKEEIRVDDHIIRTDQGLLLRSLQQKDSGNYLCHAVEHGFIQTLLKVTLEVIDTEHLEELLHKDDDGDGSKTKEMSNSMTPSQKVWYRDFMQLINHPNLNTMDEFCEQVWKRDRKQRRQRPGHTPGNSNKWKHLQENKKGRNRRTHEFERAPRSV
Test: cell-based or functional assay

- 细胞迁移 (transwell, 83细胞): 21%
- 细胞迁移 (transwell, 131细胞): 11%
- 细胞迁移 (transwell, U87-MG细胞, 50μg/ml scFv): 78%
B1: 抗信号素3A scFv抗体片段 A08 (scFv, part only; not given: linker and tags, not shown: large carriers)
scFv, part: EVQLLESGGGLVQPGGSLRLSCAASGFTFSDYAMSWVRQAPGKGLEWVSGIYYDDSSQYYADSVKGRFTISRDNSKNTLYLQMNSLRAEDTAVYYCAKNLGRFDYWGQGTLVTVSSQSVLTQPPSASGTPGQRVTISCTGSSSNIGSNAVTWYQQLPGTAPKLLIYDDNHRPSGVPDRFSGSKSGTSASLAISGLRSEDEADYYCGAWDDSLSAYVFGGGTKLTVL
- 细胞生长速度 (EZ-Cytox, 131细胞, 50μg/ml scFv, 4天): 70%

- 细胞迁移 (transwell, 83细胞): 44%
- 细胞迁移 (transwell, 131细胞): 19%
- 细胞迁移 (transwell, U87-MG细胞, 50μg/ml scFv): 70%
B2: 抗信号素3A scFv抗体片段 C10 (scFv, part only; not given: linker and tags, not shown: large carriers)
scFv, part: EVQLLESGGGLVQPGGSLRLSCAASGFTFSDYAMSWVRQAPGKGLEWVSGIYYDDSSQYYADSVEGRFTISRDNSKNTLYLQMNSLRAEDTAVYYCARYLGLFDYWGQGTLVTVSSQSVLTQPPSASGTPGQRVTISCSGSSSNIGNNSVNWYQQLPGTAPKLLIYSDSQRPSGVPDRFSGSKSGTSASLAISGLRSEDEADYYCGSWDYSLSAYVFGGGTKLTVL
- 细胞生长速度 (EZ-Cytox, 131细胞, 50μg/ml scFv, 4天): 70%

- 细胞迁移 (transwell, 83细胞): 28%
- 细胞迁移 (transwell, 131细胞): 7%
- 细胞迁移 (transwell, U87-MG细胞, 50μg/ml scFv): 74%
B3: 抗信号素3A scFv抗体片段 F11 (scFv, part only; not given: linker and tags, not shown: large carriers)
scFv, part: EVQLLESGGGLVQTGGSLRLSCAASGFTFSDYAMSWVRQAPGKGLEWVSWIYYDSGSKYYADSVKGRFTISRDNSKNTLYLQMNSLRAEDTAVYYCAKLNGDFDYWGQGTLVTVSSQSVLTQPPSASGTPGQRVTISCSGSSSNIGNNDVSWYQQLPGTAPKLLIYADSHRPSGVPDRFSGSKSGTSASLAISGLRSEDEADYYCGAWDSSLSGYVFGGGTKLTVL
- 细胞生长速度 (EZ-Cytox, 131细胞, 50μg/ml scFv, 4天): 70%
